167 variants from the RNAGym collection of RNA variant scans (doi:10.7554/elife.90254) can be followed below.

B1: OR4K15 (parent)
chain: GUUAACGGUCAUAGGCCAUGGAAACUAGGAGCACCAUUUCGCUGCCAGUGAAGAAAUGAACAAAGAAAAUCUGGGCCAGGCAGGCAUCAAAAGAAAUAGUCUUGCGCUCAACCAGAAAGUCUGUAAUCAUUUUAAGGGUA

In the data set the parent is B1. Description: self-cleavage, relative activity (ratio to wild type); higher = more cleavage; in vitro, sequencing; the parent is a self-cleaving ribozyme.
As to G83A A89G, the self-cleavage was found to be 1.56.

Consider U87C U122A, for which the self-cleavage was found to be 1.32.

For G84C U127C, the self-cleavage was 0.22.

For the variant G84A U131C, the self-cleavage amounted to 2.37.

For U87A U100G, the self-cleavage was determined as 2.13.

As for C88U U108C, the self-cleavage amounted to 0.01.

For C81G U127C, the self-cleavage was 0.04.

For A86G A126G, the self-cleavage came to 1.18.

For U87C C112G, the self-cleavage turned out to be 0.02.

For the variant U87C C112U, the self-cleavage is 0.02.

A86C U130C: the self-cleavage stood at 0.29.

In the case of G79U A94G, the self-cleavage stood at 0.43.

On to G80A A129G, for which the self-cleavage is 0.09.

Take U87C A110C: the self-cleavage was 0.12.

Regarding U87C A110G, the self-cleavage was determined as 0.1.

On to C85U U131C, for which the self-cleavage turned out to be 0.69.

Regarding U87G A91G, the self-cleavage was 0.11.

Take A82U A111G: the self-cleavage came to 0.02.

Take G83A A92G: the self-cleavage was 1.87.

For U87C C88A, the self-cleavage amounted to 0.75.

Take A89C U132A: the self-cleavage is 1.97.

G83U A135G: the self-cleavage amounted to 0.56.

As to G80A C81A, the self-cleavage worked out at 0.11.

On to U87A A114U, for which the self-cleavage was 0.1.

Regarding U87A A114C, the self-cleavage worked out at 0.05.

With U87A A114G, the self-cleavage came to 0.08.

As for U87C U127C, the self-cleavage amounted to 0.64.

On to U87C U127A, for which the self-cleavage was 2.12.

With A82G U130C, the self-cleavage was found to be 0.14.

On to A86U A90G, for which the self-cleavage was determined as 1.3.

Take A82U U102C: the self-cleavage stood at 0.33.

For G79U A96G, the self-cleavage was determined as 0.1.

In the case of C85U U103C, the self-cleavage came out at 0.34.

As for A86U U103C, the self-cleavage amounted to 1.31.

A82G A117G: the self-cleavage was 0.85.

As to A82G G99U, the self-cleavage was found to be 0.07.

G84A A94G: the self-cleavage is 0.98.

As to A82G C85U, the self-cleavage stood at 0.32.

Take A86U A95G: the self-cleavage turned out to be 2.02.

In the case of C81U U127C, the self-cleavage worked out at 0.22.

With A89C U108C, the self-cleavage came to 0.01.

G80C A96U: the self-cleavage came out at 0.09.

On to A82G A111C, for which the self-cleavage was 0.01.

Consider A82G A111G, for which the self-cleavage was found to be 0.04.

A82G A111U: the self-cleavage was determined as 0.09.

Take U87A A91G: the self-cleavage stood at 1.33.

Consider G84A U127C, for which the self-cleavage worked out at 2.46.

For A82U U127C, the self-cleavage was determined as 0.13.

For the variant C85U A117G, the self-cleavage turned out to be 1.16.

As to A89G A92U, the self-cleavage amounted to 1.57.

With A89G A92G, the self-cleavage was 1.02.

Regarding C81U U108A, the self-cleavage came to 0.02.

C81U U108C: the self-cleavage stood at 0.02.

As for A82U A96G, the self-cleavage stood at 0.24.

As for A82U A96U, the self-cleavage stood at 0.25.

On to G79A C112G, for which the self-cleavage is 0.12.

Turning to C81G A82G, the self-cleavage was found to be 0.3.

For A82G C109A, the self-cleavage came out at 0.05.

As for U87C A116C, the self-cleavage came to 0.06.

U87C A116G: the self-cleavage stood at 0.55.

Turning to A86G A94G, the self-cleavage turned out to be 1.47.

Regarding G80U U87C, the self-cleavage came to 0.22.

As to C88G A129G, the self-cleavage was found to be 2.37.

On to A86U A117G, for which the self-cleavage worked out at 2.1.

Take U87C A125U: the self-cleavage worked out at 1.74.

Consider U87C A125G, for which the self-cleavage is 0.41.

For the variant C85G A126G, the self-cleavage was determined as 0.2.

In the case of G84U A126G, the self-cleavage was found to be 0.45.

Consider A86G A110U, for which the self-cleavage turned out to be 1.06.

For G84A A111G, the self-cleavage worked out at 0.01.

In the case of A82C A125U, the self-cleavage was 0.

For the variant A86U G123A, the self-cleavage came to 1.59.

Take A89C U122C: the self-cleavage was 1.75.

For A82U U120C, the self-cleavage was 0.03.

For A82G U132C, the self-cleavage stood at 0.5.

Take A82C U120C: the self-cleavage is 0.11.

For the variant G79U U100C, the self-cleavage was determined as 0.03.

Regarding G79C U132C, the self-cleavage amounted to 0.06.

G84A U122C: the self-cleavage was determined as 2.09.

On to C81U A82G, for which the self-cleavage turned out to be 0.14.

Regarding A82U A118G, the self-cleavage stood at 0.06.

As for A82G A94U, the self-cleavage stood at 0.64.

In the case of A82G A94G, the self-cleavage stood at 0.32.

With A86U C105U, the self-cleavage is 0.27.

Consider A89C A116G, for which the self-cleavage came out at 0.19.

As for A89C A116U, the self-cleavage came out at 0.32.

Take G80A A114G: the self-cleavage amounted to 0.05.

Regarding G79A U120A, the self-cleavage was 0.13.

Turning to G79A U120G, the self-cleavage came out at 0.11.

Consider G83A U103C, for which the self-cleavage was determined as 0.41.

A82U A89G: the self-cleavage was 0.1.

Consider A82U A89U, for which the self-cleavage is 0.32.

Consider A82G A86G, for which the self-cleavage came to 0.14.

With A82C A96G, the self-cleavage is 0.11.

For the variant A82C A89C, the self-cleavage turned out to be 0.16.

As to G80C U132A, the self-cleavage came out at 0.1.

For the variant C88A, the self-cleavage came to 1.78.

As for C88U, the self-cleavage stood at 1.83.

With A82U A90G, the self-cleavage was 0.33.

With A82U A90U, the self-cleavage worked out at 0.08.

Consider G79U G104U, for which the self-cleavage worked out at 0.01.

Take G80C U103C: the self-cleavage was found to be 0.03.

For A86G A125U, the self-cleavage came to 0.14.

Consider A86G A125G, for which the self-cleavage worked out at 0.45.

As to U87C U97C, the self-cleavage came to 1.63.

For G84A A135G, the self-cleavage is 2.3.

In the case of A89G A95U, the self-cleavage is 1.95.

Regarding G84A U103C, the self-cleavage came out at 0.82.

For the variant A82U A114U, the self-cleavage is 0.01.

Take A82U A114G: the self-cleavage was 0.03.

On to U87C U133C, for which the self-cleavage came to 1.4.

Turning to U87C U133A, the self-cleavage is 0.9.

Turning to A86U A135U, the self-cleavage came to 2.32.

Regarding A86U A135G, the self-cleavage is 2.44.

Regarding G80A, the self-cleavage was 0.24.

As for G80C, the self-cleavage turned out to be 0.07.

As to G80U, the self-cleavage turned out to be 0.1.

With G80U G123A, the self-cleavage was determined as 0.14.

As for C88U U120C, the self-cleavage was 1.46.

Turning to U87C C128U, the self-cleavage worked out at 0.76.

On to A86C A94G, for which the self-cleavage came out at 0.32.

Take A86C A94U: the self-cleavage came to 1.15.

C81A A92G: the self-cleavage was 0.26.

For C88U A111G, the self-cleavage stood at 0.04.

Consider A86U U133C, for which the self-cleavage came to 2.71.

Regarding C85U U127C, the self-cleavage turned out to be 0.82.

In the case of A82U U130C, the self-cleavage came out at 0.14.

U87G A126G: the self-cleavage was found to be 0.48.

As for U87C A98G, the self-cleavage was determined as 0.74.

Take U87C A98U: the self-cleavage was determined as 1.9.

U87A A89G: the self-cleavage was found to be 0.91.

On to A89C U120C, for which the self-cleavage came to 0.75.

Consider U87G A95G, for which the self-cleavage came to 1.11.

As to C85U U102C, the self-cleavage was determined as 0.67.

With G83A U131A, the self-cleavage turned out to be 0.94.

In the case of C85G U130C, the self-cleavage stood at 0.34.

As for C88U U139A, the self-cleavage is 1.67.

For A82G A118U, the self-cleavage worked out at 0.44.

On to A82G A118G, for which the self-cleavage is 0.14.

Regarding A89G A91G, the self-cleavage was found to be 1.49.

As for U87G U127C, the self-cleavage was 0.22.

As for U87C A111U, the self-cleavage is 0.07.

With U87C A114U, the self-cleavage amounted to 0.09.

In the case of A89C A91G, the self-cleavage stood at 0.72.

Regarding G84C, the self-cleavage turned out to be 0.29.

For G84U, the self-cleavage amounted to 0.7.

Turning to G84A, the self-cleavage came to 2.05.

Consider U87C A140G, for which the self-cleavage came to 1.49.

As to G80U U100C, the self-cleavage was found to be 0.16.

C85A G106U: the self-cleavage is 0.03.

Turning to C81A U122C, the self-cleavage amounted to 0.22.

Consider C81A, for which the self-cleavage turned out to be 0.25.

For C81U, the self-cleavage stood at 0.35.

On to C81G, for which the self-cleavage amounted to 0.2.

Consider G83A A98U, for which the self-cleavage was found to be 1.82.

In the case of C85U U108C, the self-cleavage came to 0.04.

Regarding C85U U108G, the self-cleavage was 0.01.

Take U87C C105U: the self-cleavage was 0.13.

On to U87C C105A, for which the self-cleavage turned out to be 0.02.

Turning to A89C A118G, the self-cleavage came to 0.51.

On to C88U A140G, for which the self-cleavage is 2.02.

With A82G A140U, the self-cleavage was found to be 0.53.

Turning to U87A U108C, the self-cleavage amounted to 0.02.

For A89G A98G, the self-cleavage amounted to 0.67.

G84A A126G: the self-cleavage turned out to be 0.87.

G83A A135G: the self-cleavage was 1.3.

A82C A86U: the self-cleavage came out at 0.13.
